Assay results published in paper PMC10126545.

Assays:
[1] = molecular target: COBRA P1 HA N127D mutant, CHO expressed, for binding assays; assay: BLI; Octet RED384; HA loaded on anti-Penta-His biosensors (10 μg/mL), Fab 1F8 15 nM to 0.556 nM in solution; PBS, 1% BSA, 0.05% Tween 20; 30 °C; 1:1 model with mass transport limitation; mean of two independent experiments
[2] = molecular target: COBRA P1 HA wild type, CHO expressed, for binding assays; assay: as above

B1: Fab 1F8 (recombinant Fab of the P1-elicited mouse monoclonal antibody 1F8) (Fab, V domains shown)
VH: QVQLQQSGAELMKPGASVKISCKATGYTFSSYWIEWVKQRPGHGLEWIGEILPGSGRTNYDERFKGKATFTADTSSNTAYMQLSSLTSEDSAVYYCARPRIYGMDYWGQGTSVTVSS
VL: DIVLTQSPASLAVSLGQRATISCKASQSVDFDGDTYMSWYQQKPGQPPKLLIYAASKLESGIPARFSGSGSGTDFTLNIHPVEEEDAATYFCQQSNEDPWTFGGGTKLEIK
Kd [1]: 0.86 nM | Kd [2]: 2.95 nM
